{"source": "paper PMC8976717", "about": "(The Plant journal : for cell and molecular biology, 2021)", "proteins": {"B1": {"name": "GAUT1Δ167 (Arabidopsis GALACTURONOSYLTRANSFERASE 1, truncated at the in vivo cleavage site between residues 167 and 168) (enzyme, Arabidopsis thaliana, UniProt Q9LE59 168-673, looked up)", "chain": "RANELVQHNDDTILKLENAAIERSKSVDSAVLGKYSIWRRENENDNSDSNIRLMRDQVIMARVYSGIAKLKNKNDLLQELQARLKDSQRVLGEATSDADLPRSAHEKLRAMGQVLAKAKMQLYDCKLVTGKLRAMLQTADEQVRSLKKQSTFLAQLAAKTIPNPIHCLSMRLTIDYYLLSPEKRKFPRSENLENPNLYHYALFSDNVLAASVVVNSTIMNAKDPSKHVFHLVTDKLNFGAMNMWFLLNPPGKATIHVENVDEFKWLNSSYCPVLRQLESAAMREYYFKADHPTSGSSNLKYRNPKYLSMLNHLRFYLPEVYPKLNKILFLDDDIIVQKDLTPLWEVNLNGKVNGAVETCGESFHRFDKYLNFSNPHIARNFNPNACGWAYGMNMFDLKEWKKRDITGIYHKWQNMNENRTLWKLGTLPPGLITFYGLTHPLNKAWHVLGLGYNPSIDKKDIENAAVVHYNGNMKPWLELAMSKYRPYWTKYIKFDHPYLRRCNLHE"}}, "target": "the molecule itself", "assay": "non-reducing SDS-PAGE", "data": [{"protein": "B1", "values": [{"measurement": "binding result", "result": "binds"}]}]}
